Substrate in the data set: OC[C@H]1O[C@@H](O[C@H]2[C@H](O)[C@@H](O)C(O)O[C@@H]2CO)[C@H](O)[C@@H](O)[C@H]1O
The data set is described as follows: kinetics of LMG P-19143 β-galactosidase with lactose as substrate (galactose dehydrogenase assay). It counts as biochemical, Pseudoalteromonas haloplanktis LMG P-19143. The following applies: other: lactose (1 mM to 50 mM) as substrate, 25° C., pH 7.3. The text has this: The definition of enzyme activity units can be defined according to the substrate used with lactose as a substrate, the unit of activity is defined as the amount of enzyme which releases one micro-mole glucose in one minute under standard reaction conditions (temperature, pH). Another commonly used substrate is ortho-nitrophenyl-β-D galactopyranoside (ONPG) and in this case, the unit of activity is defined as the amount of enzyme which hydrolyses one micro-mole of ONPG in one minute under standard reaction conditions.
Km was also determined at 25° C. with lactose (1 mM to 50 mM) as a substrate.

B1: Pseudoalteromonas haloplanktis LMG P-19143 cold-active β-galactosidase (lac Z), native, SEQ ID NO: 2 (Pseudoalteromonas haloplanktis) (protein)
chain: MTSLQHIINRRDWENPITVQVNQVKAHSPLNGFKTIEDARENTQSQKKSLNGQWDFKLFDKPEAVDESLLYEKISKELSGDWQSITVPSNWQLHGFDKPIYCNVKYPFAVNPPFVPSDNPTGCYRTEFTITPEQLTQRNHIIFEGVNSAFHLWCNGQWVGYSQDSRLPSEFDLSELLVVGTNRIAVMVIRWSDGSYLEDQDMWWLSGIFRDVNLLTKPQSQIRDVFITPDLDACYRDATLHIKTAINAPNNYQVAVQIFDGKTSLCEPKIQSTNNKRVDEKGGWSDVVFQTIAIRSPKKWTAETPYLYRCVVSLLDEQGNTVDVEAYNIGFRKVEMLNGQLCVNGKPLLIRGVNRHEHHPENGHAVSTADMIEDIKLMKQNNFNAVRTAHYPNHPLFYELCDELGLYVVDEANIETHGMFPMGRLASDPLWAGAFMSRYTQMVERDKNHASIIIWSLGNECGHGANHDAMYGWSKSFDPSRPVQYEGGGANTTATDIICPMYSRVDTDIKDDAVPKYSIKKWLSLPGETRPLILCEYAHAMGNSLGSFDDYWQAFREYPRLQGGFIWDWVDQGLSKIDENGKHYWAYGGDFGDELNDRQFCINGLLFPDRTPHPSLFEAKYSQQHLQFTLREQNQNQNQNQYSIDVFSDYVFRHTDNEKLVWQLIQNGVCVEQGEMALNIAPQSTHTLTIKTKTAFEHGAQYYLNLDVALINDSHFANANHVMDSEQFKLINSNNLNSKSFASATEKSVISVNETDSHLSIENNTFKLVFNQQSGLIEQWLQDDTQVISSPLVDNFYRAPLDNDIGVSEVDNLDPNAWEARWSRAGIGQWQRTCSSINAVQSSVDVRITCVFNYEFNGVLQAQTQWLYTLNNTGTISLNVDVNLNDTLPPMPRIGLSTTINKQSDTKVNWLGLGPFENYPDRKSAARFGYYSLSLNELYTPYIFPTDNGLRSDCQLLSINNLIVTGAFLFAASEYSQNMLTQAKHTNELIADDCIHVHIDHQHMGVGGDDSWSPSTHKEYLLEQKNYNYSLTLTGGITT
notes: ORF of 1038 residues
B1: the Km came to 2400 µM.

For orientation: Km means the concentration of substrate that gives half-maximal velocity.

These data come from US6727084B1, “Cold-active beta-galactosidase, the process for its preparation and the use thereof” (Universite de Liege, priority 1999, dated 2004).
